Reference: patent US20200247903A1
Each block holds one molecule with its values, some of them ahead of it.

Key:
[1] = target: Band 3 antigen on mouse erythrocytes (mouse) (UniProt P04919); experiment: flow cytometry on mouse RBCs (++++ = MFI > 500)
[2] = target: Mouse CD24 (Heat Stable Antigen, Ly-52, Nectadrin) on mouse erythrocytes (mouse) (UniProt P24807); experiment: flow cytometry histogram on C57BL/6 mouse erythrocytes, PE-anti rat Ig; antibody quantity of this sample not given; RBC alone 2.80 [continued) I]
Sequence of UniProt P24807 (P24807 27-53): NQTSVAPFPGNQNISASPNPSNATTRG

[3] = target: Mouse CD24 (Heat Stable Antigen, Ly-52, Nectadrin) on mouse erythrocytes (mouse) (UniProt P24807); experiment: flow cytometry on mouse RBCs (++++ = MFI > 500)
[4] = target: TER-119 antigen (Ly76, 52 kD glycophorin A-associated protein) on mouse erythrocytes (mouse); experiment: flow cytometry histogram on C57BL/6 mouse erythrocytes, PE-anti rat Ig; antibody quantity of this sample not given; RBC alone 2.80 [continued) I]
[5] = target: TER-119 antigen (Ly76, 52 kD glycophorin A-associated protein) on mouse erythrocytes (mouse); experiment: flow cytometry saturation binding on RBCs
[6] = target: TER-119 antigen (Ly76, 52 kD glycophorin A-associated protein) on mouse erythrocytes (mouse); experiment: cell-based or functional assay
[7] = target: TER-119 antigen (Ly76, 52 kD glycophorin A-associated protein) on mouse erythrocytes (mouse); experiment: flow cytometry on mouse RBCs (++++ = MFI > 500)
[8] = target: TER-119 antigen (Ly76, 52 kD glycophorin A-associated protein) on mouse erythrocytes (mouse); experiment: flow cytometry on mouse RBCs (+++ = MFI > 250)

Sequence of UniProt P04919 (P04919 whole entry): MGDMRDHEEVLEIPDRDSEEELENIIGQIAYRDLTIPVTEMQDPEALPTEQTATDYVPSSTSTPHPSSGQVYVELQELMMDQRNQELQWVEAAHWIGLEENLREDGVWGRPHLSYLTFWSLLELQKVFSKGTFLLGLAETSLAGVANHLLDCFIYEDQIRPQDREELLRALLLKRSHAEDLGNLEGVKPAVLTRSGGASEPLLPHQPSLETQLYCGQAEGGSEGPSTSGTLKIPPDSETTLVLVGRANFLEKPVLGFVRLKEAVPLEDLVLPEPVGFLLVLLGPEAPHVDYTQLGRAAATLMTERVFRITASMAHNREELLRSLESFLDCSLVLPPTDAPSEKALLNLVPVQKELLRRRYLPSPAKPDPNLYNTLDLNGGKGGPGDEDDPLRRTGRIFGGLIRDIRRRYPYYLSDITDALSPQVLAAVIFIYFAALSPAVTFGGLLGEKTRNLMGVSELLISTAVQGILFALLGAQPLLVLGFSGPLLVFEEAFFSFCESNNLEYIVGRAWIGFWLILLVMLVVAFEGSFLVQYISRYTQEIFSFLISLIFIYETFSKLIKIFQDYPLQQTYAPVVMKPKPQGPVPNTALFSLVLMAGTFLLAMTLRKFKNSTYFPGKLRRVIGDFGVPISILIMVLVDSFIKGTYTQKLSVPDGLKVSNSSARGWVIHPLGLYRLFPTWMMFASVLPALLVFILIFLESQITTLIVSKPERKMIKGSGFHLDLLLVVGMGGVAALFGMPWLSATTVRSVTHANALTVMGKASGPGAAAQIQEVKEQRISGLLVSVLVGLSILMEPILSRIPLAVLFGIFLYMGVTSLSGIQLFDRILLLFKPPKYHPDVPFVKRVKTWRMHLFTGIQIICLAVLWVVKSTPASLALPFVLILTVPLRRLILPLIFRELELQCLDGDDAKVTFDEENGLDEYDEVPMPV

MFI [1]: > 500 mfi
Molecule: 34-3C (anti-Band 3 mAb, mouse IgG2a) (antibody)

Median : YLW-HLog [2]: 113 | MFI [3]: > 500 mfi
Molecule: M1/69 (rat IgG2b antibody to mouse CD24)

Median : YLW-HLog [2]: 2.76 | Median : YLW-HLog [4]: 2.76
Molecule: Isotype control (antibody)

Kd [5]: 30 nM | Median : YLW-HLog [4]: 112 | phagocytic index of TER-119 opsonized RBCs by RAW264.7 macrophages (lowest effective concentration) [6]: 1.25 µg/mL | phagocytic index of TER-119 opsonized RBCs by RAW264.7 macrophages (plateau) [6]: 5 µg/mL | MFI [7]: > 500 mfi
B1: TER-119 antibody (rat IgG2b monoclonal antibody to the mouse TER-119 antigen) (antibody, V domains shown)
VH: EVKLQESGGGLVQPGGSLKLSCVASGFTFRDHWMNWVRQAPGKTMEWIGDIRPDGSDTNYAPSVRNRFTISRDNARSILYLQMSNMRSDYTATYYCVRDSPTRAGLMDAWGQGTSVTVSS
VL: DIQMTQSPSVLSASVGDRVTLNCKASQNINKYLNWYQQKLGEAPKVLIYNTNNLQTGIPSRFSGSGSGTDFTLTISSLQPEDFATYFCFQHYTWPTFGGGTKLEIKR

Median : YLW-HLog [4]: 126 | MFI [8]: 250 to 500 mfi
B2: Deglycosylated TER-119 (antibody, V domains shown)
VH: EVKLQESGGGLVQPGGSLKLSCVASGFTFRDHWMNWVRQAPGKTMEWIGDIRPDGSDTNYAPSVRNRFTISRDNARSILYLQMSNMRSDYTATYYCVRDSPTRAGLMDAWGQGTSVTVSS
VL: DIQMTQSPSVLSASVGDRVTLNCKASQNINKYLNWYQQKLGEAPKVLIYNTNNLQTGIPSRFSGSGSGTDFTLTISSLQPEDFATYFCFQHYTWPTFGGGTKLEIKR
modifications: Fc glycan removed (a variant without the Fc glycan)
